{"source": "patent US8450284B2", "about": "“Coiled-coil lipopeptide helical bundles and synthetic virus-like particles” (Universitaet Zuerich, priority 2006, dated 2013)", "key": {"Rabbits [1]": {"test_system": "Rabbits", "test": "Immunization of rabbits, ELISA for antibodies binding the conjugate used for immunization (Table 1)", "type": "in vivo, rabbit", "settings": "150 μg conjugate, ELISA on the immunogen; for log10 (Endpoint titers) 2°: after first booster (serum day 38); for log10 (Endpoint titers) 3°: after second booster (serum day 66), rabbits in groups of two, each group given one conjugate", "procedure": "(§1) Rabbits (groups of two) were each immunized with 150 μg of one conjugate, reconstituted and equilibrated for at least 1 h at r.t. in either 400 μl PBS (10 mM sodium phosphate, 154 mM NaCl, pH 7.2), or with Freund's adjuvant (Freund's complete adjuvant (FA) for primary and Freund's incomplete adjuvant (FIA) for booster immunizations). Immunizations were performed on days 0, 28 and 56. Sera were collected on days 14, 38 and 66. The sera were analyzed by enzyme-linked immunosorbent assay (ELISA), to detect antibodies that bind to the conjugates used for immunizations.\n(§2) ELISA microtiter-plates (Nunc Immunoplates Polysorb F96) were coated overnight with a 5 μg/ml solution of each antigen in PBS. The wells were then washed with PBS containing 0.05% Tween 20 (PBST) and blocked with PBS containing 5% skimmed milk powder for 1 h at r.t. After blocking, the wells were washed three times with PBST and incubated with serial dilutions of rabbit serum in PBS containing 0.05% Tween 20 and 0.5% skimmed milk powder (MPBST) for 2.5 h at r.t., followed by three washes with PBST. The plates were then incubated with alkaline phosphatase-conjugated mouse anti-rabbit IgG antibody (Sigma), diluted 1:20000 in MPBST for 1 h at r.t., washed again three times with PBST and incubated in the dark with a 1 mg/ml solution of p-nitrophenyl phosphate (Sigma) in substrate buffer (50 mM sodium carbonate buffer, 1 mM MgCl2, pH 9.6) at r.t. The absorbance was read after an appropriate time at 405 nm using a Bio-Rad Model 3550 microplate reader."}, "Rabbits [2]": {"test_system": "Rabbits", "test": "Immunization of rabbits, ELISA cross-reaction with the same antigen attached to a different LBB (Table 2)", "type": "in vivo, rabbit", "settings": "for Endpoint titers (log10) 3°: after second booster", "procedure": "as §1\nThe specificity of each hapten specific immune response was also analyzed by ELISA (Table 2). Here the ability of antibodies elicited by each conjugate to cross-react with the same antigen attached to a different LBB was measured.\nas §2"}, "[3]": {"test": "Far UV circular dichroism spectroscopy (CONTIN analysis, thermal denaturation)", "type": "physicochemical", "procedure": "Far ultraviolet circular dichroism (CD) spectra were measured at r.t. using a Jasco J-715 spectropolarimeter and a 0.1 cm path length quartz cell. Peptide 5 solution (50 μM) and lipopeptide 4 solution (35.7 μM) were prepared in TRIS buffer (10 mM TrisHCl, 90 mM NaCl, pH 7.4) and concentrations were determined by phosphate or amino acid analysis, as appropriate. Scan speeds of 10-100 nm/min, 1-2 second response times and a 1 nm spectral bandwidth were employed and spectra were collected at a minimum resolution of 0.5 nm. After subtraction of the blank, the spectral values were reported as mean residue ellipticity [deg. cm^2/dmol] and the lipid moiety was ignored when calculating the mean residue molecular weight.\nCD spectra of low concentration samples of lipopeptide 4 (2-40 μM) were measured at 20° C. with a Jasco J-810 spectropolarimeter using a 1 cm path length quartz cell. Lipopeptide solutions were prepared in PBS (10 mM Na2HPO4, 90 mM NaCl, pH 7.4) and concentrations were determined by phosphate analysis. Scan speeds of 10 nm/min, 4 second response time and a 2 nm spectral bandwidth were employed and spectra were collected at a minimum resolution of 0.5 nm. Data were elaborated as described above."}, "[4]": {"settings": "far UV CD at room temperature, FIG. 6"}}, "note": "Several values for one entry are separate records, joined by “and”; a condition that tells them apart may be missing. Identical values can stand only once. Ends that are not written are not given here.", "data": [{"molecule": "LBB6-LY-CH: conjugate of lipopeptide 6 with LY-CH-HMB (GGAVSKVLHLEGEVNKIKSALLSTNKAVVSLSNGVSVLTSKVLDLKNYIDKQC; also: conjugate of lipopeptide 6 with LY-CH-HMB)", "values": [{"measurement": "log10 (Endpoint titers) 2°", "setting": "Rabbits [1]; two rabbits (a, b)", "result": 5.11}, {"measurement": "log10 (Endpoint titers) 1°", "setting": "Rabbits [1]; after primary immunization (serum day 14), two rabbits (a, b)", "result": "3.90 and 4.20"}, {"measurement": "Endpoint titers (log10) 3°", "setting": "Rabbits [2]; ELISA antigen LBB7-LY-CH", "result": "5.41 and 5.71"}]}, {"molecule": "LBB7-LY-CH: conjugate of lipopeptide 7 with LY-CH-HMB (SGIKKEIEAIKKEQEAIKKKIEAIERMLQLTVWGIKQLQARVLAVERYLGDCG; also: conjugate of lipopeptide 7 with LY-CH-HMB)", "values": [{"measurement": "log10 (Endpoint titers) 3°", "setting": "Rabbits [1]", "result": "4.41 and 4.11"}, {"measurement": "Endpoint titers (log10) 2°", "setting": "Rabbits [2]; ELISA antigen LBB6-LY-CH, after first booster", "result": "5.01 and 4.71"}, {"measurement": "Endpoint titers (log10) 3°", "setting": "Rabbits [2]; ELISA antigen LBB6-LY-CH", "result": 5.01}]}, {"molecule": "peptide 5: same peptide sequence as lipopeptide 4 but lacks the phospholipid and linker (GGAVSKVLHLEGEVNKIKSALLSTNKAVVSLSNGVSVLTSKVLDLKNYIDKQ; derived from RSV F glycoprotein)", "values": [{"measurement": "aperiodic structure content (CONTIN)", "setting": "[3]; [4]", "result": 42, "unit": "%"}, {"measurement": "β-sheet content (CONTIN)", "setting": "[3]; [4]", "result": 25, "unit": "%"}, {"measurement": "α-helix content (CONTIN)", "setting": "[3]; far UV CD at room temperature, pH 7.4, FIG. 6", "result": 33, "unit": "%"}, {"measurement": "mid point of thermal denaturation transition", "setting": "[3]; peptide concentration 35 μM", "result": "~40", "unit": "°C"}]}, {"molecule": "LBB7-12: conjugate of lipopeptide 7 with peptide 12 (conjugate, cyclised or stapled) SGIKKEIEAIKKEQEAIKKKIEAIERMLQLTVWGIKQLQARVLAVERYLGDCG peptide: NCRKSIHIGPGRAFYTTGCG", "values": [{"measurement": "log10 (Endpoint titers) 2°", "setting": "Rabbits [1]; two rabbits (a, b)", "result": "4.41 and 4.11"}, {"measurement": "log10 (Endpoint titers) 3°", "setting": "Rabbits [1]", "result": "4.41 and 4.11"}, {"measurement": "Endpoint titers (log10) 1°", "setting": "Rabbits [2]; ELISA antigen LBB6-12, after primary immunization", "result": "<1.70"}]}, {"molecule": "LBB6-12: conjugate of lipopeptide 6 with peptide 12 (conjugate, cyclised or stapled) GGAVSKVLHLEGEVNKIKSALLSTNKAVVSLSNGVSVLTSKVLDLKNYIDKQC peptide: NCRKSIHIGPGRAFYTTGCG", "values": [{"measurement": "log10 (Endpoint titers) 3°", "setting": "Rabbits [1]", "result": "5.01 and 4.71"}]}]}
